Measured values from US20260265334A1, “STAPLED PEPTIDES” (THE FLOREY INSTITUTE OF NEUROSCIENCE AND MENTAL HEALTH, priority 2023, published 2026).
Square brackets hold non-standard residues; d marks the D form. Ends that are not written are not given here. Peptide text beside a SMILES is read from it. αMeF = C[C@](N)(Cc1ccccc1)C(=O)O

What was measured:
[1] = biological target: RXFP3 (relaxin family peptide receptor 3) on CHO-K1-RXFP3 cells (UniProt Q9NSD7); test: cell-based or functional assay
[2] = biological target: RXFP3-NLuc (human RXFP3 with Nanoluciferase on the C-terminus) (human) (UniProt Q9NSD7); test: cell-based or functional assay
[3] = biological target: RXFP4 (relaxin family peptide receptor 4) on CHO-K1-RXFP4 cells (UniProt Q8TDU9); test: cell-based or functional assay
[4] = biological target: RXFP4-NLuc (nanoluciferase-tagged RXFP4) (UniProt Q8TDU9); test: cell-based or functional assay
[5] = biological target: RXFP3 (relaxin family peptide receptor 3) on CHO-K1-RXFP3 cells (UniProt Q9NSD7); test: competition with 5 nM Eu-H3B1-22R on CHO-K1-RXFP3 cells
[6] = biological target: RXFP4 (relaxin family peptide receptor 4) on CHO-K1-RXFP4 cells (UniProt Q8TDU9); test: competition with 5 nM Eu-DTPA-R3/I5 on CHO-K1-RXFP4 cells
RXFP4 [7] = biological target: T1, RXFP4 (Homo sapiens, UniProt Q8TDU9); test: Eu-R3/I5 competition binding assay in CHO-K1-RXFP4 cells; parameters: expressed in transfected cells; details: RXFP4; Table 5; read-out: Eu-R3/I5 pKi (converted)
Protocol: An Eu-R3/15 competition binding assay in CHO-K1-RXFP4 cells was carried out.
Competition binding curves for each peptide were performed in triplicate and each experiment was performed independently at least three times. Fluorescent measurements were carried out at excitation of 340 nm and emission of 614 nm on a BMG POLARstar plate reader (BMG Labtech, Melbourne, Australia). Pooled data were presented as mean±S.E.M. of specific binding and are fitted using a one-site binding curve in GraphPad Prism version 8 (GraphPad Inc., San Diego, USA). Statistical analyses were conducted using one-way analysis of variance with uncorrected Fisher's least significant difference (LSD) post-hoc analysis in GraphPad Prism version 9.
(§1) An additional analogue of INSL5 was utilised as a control, INSL5-A13, having an A chain (SEQ ID NO: 9) and a B chain (SEQ ID NO: 10) with a first disulfide bond between Cys 1 of the A chain and Cys 7 of the B chain, and a second disulfide bond between Cys 14 of the A chain and Cys 19 of the B chain:
(§2) Competition binding and cAMP activity assay were conducted by a procedure analogous to that described above for Example 3. The results are shown in FIG. 24 (RXFP3) and FIG. 25 (RXFP4).

RXFP4 [8] = biological target: T1, RXFP4; test: Inhibition of forskolin-induced cAMP activity in CHO-K1-RXFP4 cells (pCRE β-galactosidase reporter); type: cell-based; parameters: expressed in transfected cells; details: RXFP4; Table 5; read-out: cAMP pEC50 (converted)
Protocol: For agonist assays, cells were stimulated with forskolin (5 μM for RXFP3, 1 μM for RXFP4)±increasing concentrations of each peptide for 6 hours. Data were expressed as the % forskolin activity, whereby 100% was defined as forskolin alone and 0% as maximum agonist stimulation (1 μM Analogue 2 for RXFP3 and 1 μM Analogue 13 for RXFP4). Data were analysed and plotted using GraphPad Prism 9 and are expressed as the mean±SEM of the pooled data. Statistical analysis was conducted using one-way ANOVA with Uncorrected Fisher's LSD post-hoc analysis using GraphPad Prism 9.
as §1, §2

RXFP4 [9] = biological target: T1, RXFP4; test: SmBiT-R3/I5 NanoBiT competition binding assay, HEK-LgBiT-RXFP4 membrane fractions; parameters: expressed in transfected cells; details: RXFP4, 2 nM SmBiT-R3/I5; Table 5; read-out: SmBiT R3/I5 pKi (converted)
Protocol: Furthermore, a SmBiT-R3/15 competition binding assay was performed. All peptides were examined for their binding affinity to RXFP4 utilizing a competition NanoLuc® Binary Technology (NanoBiT™) binding assay. Briefly, HEK-LgBiT-RXFP4 crude membrane fractions (25 μg protein) were incubated with 2 nM SmBiT-R3/15 and increasing concentrations of competing peptides in binding buffer (0.5% BSA, 20 mM HEPES pH 7.5, 1.5 mM CaCl2), 50 mM NaCl) in a total of 100 μL in 96-well Optiplates (PerkinElmer, Waltham MA, USA). After 1 hour of shaking at room temperature, 1.25 μM final concentration of coelenterazine 400a was added, and luminescence measurements were recorded using a MicroBeta Microplate Counter (PerkinElmer, Waltham MA, USA). Each concentration-response curve was tested in triplicate, and each experiment was repeated at least three times with data being expressed as the mean±standard error of the mean (S.E.M) % specific.

[10] = biological target: T2, RXFP4 (relaxin family peptide receptor 4) on CHO-K1-RXFP4 cells (UniProt Q8TDU9 1-374, limits assumed); test: cell-based or functional assay
[11] = biological target: T3, RXFP3 (relaxin family peptide receptor 3) on CHO-K1-RXFP3 cells (UniProt Q9NSD7 1-469, limits assumed); test: cell-based or functional assay
T3 sequence (looked up): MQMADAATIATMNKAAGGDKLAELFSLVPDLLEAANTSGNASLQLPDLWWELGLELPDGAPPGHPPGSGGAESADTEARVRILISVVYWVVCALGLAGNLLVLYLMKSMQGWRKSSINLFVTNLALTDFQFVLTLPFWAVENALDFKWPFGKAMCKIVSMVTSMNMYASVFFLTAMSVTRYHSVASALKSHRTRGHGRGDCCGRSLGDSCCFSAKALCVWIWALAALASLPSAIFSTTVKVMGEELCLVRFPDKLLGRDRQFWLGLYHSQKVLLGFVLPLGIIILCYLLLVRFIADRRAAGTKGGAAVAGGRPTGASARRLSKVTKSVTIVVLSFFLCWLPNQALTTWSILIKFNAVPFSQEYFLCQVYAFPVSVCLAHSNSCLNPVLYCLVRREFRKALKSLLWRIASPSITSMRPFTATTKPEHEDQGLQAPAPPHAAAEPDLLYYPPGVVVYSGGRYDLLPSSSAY

[12] = biological target: T2, RXFP4 (relaxin family peptide receptor …); test: competition with Eu-R3/I5 on CHO-K1-RXFP4 cells
[13] = biological target: T3, RXFP3 (relaxin family peptide receptor …); test: competition with Eu-H3B1-22R on CHO-K1-RXFP3 cells
[14] = biological target: T3, RXFP3 (relaxin family peptide receptor …); test: cell-based or functional assay; remark: listed apart in the source
[15] = biological target: T2, RXFP4 (relaxin family peptide receptor …); test: cell-based or functional assay; remark: listed apart in the source
[16] = biological target: T4, RXFP3-NLuc (human RXFP3 with Nanoluciferase on the C-terminus) (human, UniProt Q9NSD7 1-469); test: cell-based or functional assay
T4 sequence (looked up): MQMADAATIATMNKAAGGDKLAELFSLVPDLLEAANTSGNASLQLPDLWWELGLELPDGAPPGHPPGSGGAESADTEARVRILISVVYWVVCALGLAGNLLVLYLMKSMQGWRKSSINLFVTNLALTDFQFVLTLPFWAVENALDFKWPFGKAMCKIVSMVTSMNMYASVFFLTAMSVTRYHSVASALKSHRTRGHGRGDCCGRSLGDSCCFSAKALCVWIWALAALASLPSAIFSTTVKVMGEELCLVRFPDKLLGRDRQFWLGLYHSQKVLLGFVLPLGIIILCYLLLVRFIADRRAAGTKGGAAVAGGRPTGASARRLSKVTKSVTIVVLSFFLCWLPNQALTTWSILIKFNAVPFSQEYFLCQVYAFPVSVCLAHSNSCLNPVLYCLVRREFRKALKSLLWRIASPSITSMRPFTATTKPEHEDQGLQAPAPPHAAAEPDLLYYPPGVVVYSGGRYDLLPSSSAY

[17] = biological target: RXFP4-NLuc (nanoluciferase-tagged RXFP4) (UniProt Q8TDU9 1-374); test: cell-based or functional assay
[18] = biological target: T3, RXFP3 (relaxin family peptide receptor …); test: competition with 5 nM Eu-H3B1-22R on CHO-K1-RXFP3 cells
[19] = biological target: T2, RXFP4 (relaxin family peptide receptor …); test: competition with 5 nM Eu-DTPA-R3/I5 on CHO-K1-RXFP4 cells
[20] = biological target: T5, RXFP3 (relaxin family peptide receptor 3) on CHO-K1-RXFP3 cells, Q9NSD7; test: cell-based or functional assay
T5 chain: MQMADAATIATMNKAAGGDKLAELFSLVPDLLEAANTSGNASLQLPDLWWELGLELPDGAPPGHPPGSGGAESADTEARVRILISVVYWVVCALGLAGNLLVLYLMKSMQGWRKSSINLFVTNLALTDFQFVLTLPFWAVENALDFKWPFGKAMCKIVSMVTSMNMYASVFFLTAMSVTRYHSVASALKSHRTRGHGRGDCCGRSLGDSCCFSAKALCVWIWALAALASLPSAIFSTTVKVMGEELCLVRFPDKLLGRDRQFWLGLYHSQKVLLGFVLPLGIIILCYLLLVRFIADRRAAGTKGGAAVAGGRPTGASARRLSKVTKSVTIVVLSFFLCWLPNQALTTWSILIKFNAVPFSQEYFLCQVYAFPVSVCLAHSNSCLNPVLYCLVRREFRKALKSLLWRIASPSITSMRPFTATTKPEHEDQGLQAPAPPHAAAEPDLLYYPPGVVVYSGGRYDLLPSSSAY

T2 sequence (Q8TDU9 whole entry): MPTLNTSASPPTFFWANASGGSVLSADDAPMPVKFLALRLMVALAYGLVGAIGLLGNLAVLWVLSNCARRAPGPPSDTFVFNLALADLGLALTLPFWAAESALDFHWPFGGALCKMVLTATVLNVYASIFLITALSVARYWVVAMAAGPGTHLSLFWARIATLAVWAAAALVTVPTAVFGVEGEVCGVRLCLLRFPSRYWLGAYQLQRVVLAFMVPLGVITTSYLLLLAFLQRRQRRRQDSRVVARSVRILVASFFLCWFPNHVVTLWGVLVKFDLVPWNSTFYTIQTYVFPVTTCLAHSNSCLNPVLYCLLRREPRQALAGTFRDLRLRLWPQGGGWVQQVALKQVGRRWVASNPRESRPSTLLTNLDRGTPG
T1 sequence (Q8TDU9 whole entry): as above
RXFP4 (relaxin family peptide receptor 4) on CHO-K1-RXFP4 cells (UniProt Q8TDU9), sequence (Q8TDU9 whole entry): as above
RXFP4-NLuc (nanoluciferase-tagged RXFP4) (UniProt Q8TDU9 1-374), sequence (Q8TDU9 whole entry): as above
RXFP4-NLuc (nanoluciferase-tagged RXFP4) (UniProt Q8TDU9), sequence (Q8TDU9 whole entry): as above

For “R3/I5 (R3/I5 chimeric relaxin peptide, RXFP3 agonist) (ligand)”, the cAMP pEC50 [1] was 8.89, the RXFP3 pEC50 (β-arrestin2 recruitment, NanoBRET AUC) [2] was 7.91 and the cAMP pEC50 [3] was 8.98. For the same molecule, the RXFP4 pEC50 (β-arrestin2 recruitment, NanoBRET AUC) [4] was 7.56, the pKi [5] was 7.77 and the pKi [6] was 8.28.

Molecule `CC[C@H](C)[C@H](NC(=O)[C@H](Cc1ccc(O)cc1)NC(=O)[C@@H](NC(=O)[C@@H](NC(=O)[C@](C)(Cc1ccccc1)NC(=O)[C@H](CCCNC(=N)N)NC(=O)[C@@H](NC(=O)[C@H](Cc1ccc(O)cc1)NC(=O)[C@](C)(Cc1ccccc1)NC(=O)[C@H](CC(C)C)NC(=O)CNC(=O)[C@@H](N)CO)[C@@H](C)CC)C(C)C)[C@@H](C)CC)C(=O)N[C@@H](CO)C(=O)NCC(=O)NCC(=O)N[C@@H](CO)C(=O)N[C@@H](CCCNC(=N)N)C(=O)N[C@@H](Cc1c[nH]c2ccccc12)C(=O)O` [aF stapled analogue] (H-SGL[αMeF]YIR[αMeF]VIYISGGSRW-OH) has a Ki (RXFP4 [7]) of 158 nM, an EC50 (RXFP4 [8]) of 87.1 nM and a Ki (RXFP4 [9]) of 30.9 nM.

For SGR[αMeF]FIR[αMeF]VIFTSR (14 residues) [H3B10-22R13/17αF (Formula X, RXFP3 antagonist)], the “RXFP4 cAMP pEC50” value [10] was under 5, the “RXFP3 Antagonist potency pIC50” value [11] was 6.98 and the binding result [12] was “no binding”. It also gave a pKi [13] of 7.6.

B1: H3B10-27(13/17αF) (peptide)
peptide: SGR[αMeF]FIR[αMeF]VIFTSGGSRW
notes: 18-residue single-chain RXFP3 agonist, non-covalently stapled; also called πH3B; target peptide
B1 was tested, and the “cAMP pEC50” value [14] was 8.16, the “cAMP pEC50” value [15] was 7.26 and the “RXFP3 pEC50 (β-arrestin2 recruitment, NanoBRET AUC)” value [16] was 7.19. For the same molecule, the “RXFP4 pEC50 (β-arrestin2 recruitment, NanoBRET AUC)” value [17] was 5.57, the pKi [18] was 6.83 and the pKi [19] was 6.81.

SGRFFIRFVIFTSGGSRW (modifications not checked) [H3B10-27(13/17F)] gave a cAMP pEC50 [20] of under 5.
